Data on 3 molecules can be found in publication PMC13234300, “De novo and scaffold-based design of GDF15 binders for cancer cachexia diagnostics and therapeutics” (Experimental & Molecular Medicine, 2026).

By koff is commonly meant the first-order rate constant of dissociation.

For experiment [1], the target named is recombinant mature human GDF15 dimer, N-glyco-engineered variant (R198N and G200T), Twin-Strep tagged (human) (UniProt Q99988). Briefly: SPR. For orientation: In SPR one partner is held on a chip, and binding of the other changes the refractive index at the surface.
Experiment [2] concerns the target T1, recombinant mature human GDF15 dimer, N-glyco-engineered variant (R198N and G200T), Twin-Strep tagged (human, UniProt Q99988 198-308, R198N | G200T).
T1 sequence: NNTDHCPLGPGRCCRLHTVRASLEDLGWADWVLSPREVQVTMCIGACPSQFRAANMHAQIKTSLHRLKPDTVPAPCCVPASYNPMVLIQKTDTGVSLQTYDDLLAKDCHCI
Briefly: SPR.

Experiment [3] concerns the target T2, recombinant mature human GDF15 dimer, N-glyco-engineered variant (R198N and G200T), Twin-Strep tagged (human, UniProt Q99988 198-308, R198N | G200T).
T2 construct: mature human GDF15, residues 198–308, N-glyco-engineered variant (R198N and G200T); no cleavage step is described (eluted with desthiobiotin, then SEC); also called Twin-Strep-GDF15 dimer; growth differentiation factor-15; source: Expi293F, transfected, purified from supernatant (Strep-Tactin-XT, SEC)
T2 sequence (looked up): T1 sequence
The experiment can be described thus: SPR; Biacore T200; GDF15 dimer immobilised on CM5 chip by amine coupling; HBS-EP+; analyte 5-50 nM in the figure; 1:1 binding model; apparent (avidity of the Fc dimer). The following applies: both partners purified.

In experiment [4] the target is T2, recombinant mature human GDF15 dimer, …. Briefly: SPR; Biacore T200; GDF15 dimer immobilised on CM5 chip by amine coupling (10 mM sodium acetate, pH 5.5); HBS-EP+ (0.01 M HEPES pH 7.4, 0.15 M NaCl, 3 mM EDTA, 0.05% P20); analytes 5-100 nM, 300 s association, 300 s dissociation, 30 μl/min; two-state reaction model. The following applies: both partners purified.

ponsegromab: in experiment [1], the Kd was 0.0802 nM and the koff was 2.24e-05 s⁻¹.

B1: SGA2-4-Fc (Fc-fused SGA2-4 binder, homodimeric decoy receptor) (Fc fusion)
chain: VTVFEALDAIIADPQSNAALAAHLKAVAALPADATKAQVDAIYDAFLAQLPAEVRAKVLAAKPDPTNPDEIQLYNQLRGYDKL
modifications: Homodimer through a C-terminal human IgG Fc (isotype and limits not given). The Fc, thrombin site and 6xHis tag are left out; the Fc only provides bivalency/avidity. Expressed in mammalian cells.
For B1, the koff in experiment [2] was 7.16e-05 s⁻¹. For the same molecule, the Kd in experiment [3] was 0.081 nM.

B2: human GFRAL D2 domain (residues 115–217) (domain or fragment, UniProt Q6UXV0 115-217, looked up)
chain: WNLTTRSHHGFKGMWSCLEVAEACVGDVVCNAQLASYLKACSANGNPCDLKQCQAAIRFFYQNIPFNIAQMLAFCDCAQSDIPCQQSKEALHSKTCAVNMVPP
notes: human GFRAL (glial cell-derived neurotrophic factor family receptor alpha-like), D2 domain, residues 115–217; the expressed construct as residues 115–217; also called hGFRAL D2; initial scaffold; source: Expi293F, transfected, purified (protein A, on-resin thrombin cleavage, SEC); not shown: Fc, C-terminal, cleaved
Take B2: the Kd in experiment [4] stood at 90.4 nM.
